Measured values taken from publication PMC8836279, “The T850D Phosphomimetic Mutation in the Androgen Receptor Ligand Binding Domain Enhances Recruitment at Activation Function 2” (International Journal of Molecular Sciences, 2022).
Substitutions are numbered along the chain they refer to. Square brackets hold non-standard residues; d marks the D form. pT = C[C@@H](OP(=O)(O)O)[C@H](N)C(=O)O

Legend:
AR T850A = target: T1, AR T850A (Homo sapiens, UniProt P10275, T851A); assay: Whole-cell competition ligand binding assay in COS-7 cells; details: mean ± SE
T1 construct: Cells expressing a flag-tagged AR full-length were used as control; expressed in transfected cells
T1 sequence (P10275 1-920 T851A): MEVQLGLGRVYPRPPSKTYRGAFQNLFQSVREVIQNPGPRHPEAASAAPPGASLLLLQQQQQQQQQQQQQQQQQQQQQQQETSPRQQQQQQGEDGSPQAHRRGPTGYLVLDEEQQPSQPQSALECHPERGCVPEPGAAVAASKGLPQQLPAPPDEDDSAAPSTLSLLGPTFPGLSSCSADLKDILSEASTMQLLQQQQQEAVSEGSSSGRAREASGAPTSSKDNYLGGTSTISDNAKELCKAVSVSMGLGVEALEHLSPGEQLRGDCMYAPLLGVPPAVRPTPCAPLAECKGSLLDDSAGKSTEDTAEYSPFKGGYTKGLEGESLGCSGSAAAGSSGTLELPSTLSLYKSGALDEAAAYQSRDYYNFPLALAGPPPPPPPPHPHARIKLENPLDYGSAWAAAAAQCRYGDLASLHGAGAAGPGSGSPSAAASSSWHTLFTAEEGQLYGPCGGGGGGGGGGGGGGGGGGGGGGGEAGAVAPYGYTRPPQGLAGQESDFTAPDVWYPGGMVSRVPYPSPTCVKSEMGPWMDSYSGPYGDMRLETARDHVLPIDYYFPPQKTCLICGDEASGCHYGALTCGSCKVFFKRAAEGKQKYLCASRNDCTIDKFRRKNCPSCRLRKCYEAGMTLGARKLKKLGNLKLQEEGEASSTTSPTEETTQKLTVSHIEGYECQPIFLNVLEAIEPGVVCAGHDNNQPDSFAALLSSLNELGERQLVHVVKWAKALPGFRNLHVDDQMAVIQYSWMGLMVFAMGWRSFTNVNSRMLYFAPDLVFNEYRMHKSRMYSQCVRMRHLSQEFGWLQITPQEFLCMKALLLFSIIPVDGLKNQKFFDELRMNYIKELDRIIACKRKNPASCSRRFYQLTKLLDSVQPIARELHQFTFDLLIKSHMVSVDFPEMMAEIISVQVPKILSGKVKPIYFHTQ
Experimental: (§1) After addition of Ultima Gold XR (Perkin Elmer, Waltham, MA, USA), cell lysates were counted for ^3H-signal. Data were normalized for the average cpm of all data points per independent experiment. Mean and SEM of the specific binding (total binding—non-specific binding) is given (n ≥ 3). Via non-linear regression analysis using the One-site binding-equation of GraphPad Prism 9 (version 9.3.1), the KD and Bmax were calculated. Ratio-paired T-test with * = p ≤ 0.05, ** = p < 0.01.

AR T850D = target: T2, AR T850D (Homo sapiens, UniProt P10275, T851D); assay: as above
T2 construct: Cells expressing a flag-tagged AR full-length were used as control; expressed in transfected cells
T2 sequence (P10275 1-920 T851D): T1 sequence (P10275 1-920 T851A) with A851D
Experimental: as §1

AR WT = target: T3, AR WT (Homo sapiens, UniProt P10275); assay: as above; details: mean ± SE
T3 construct: Cells expressing a flag-tagged AR full-length were used as control; expressed in transfected cells
T3 sequence (P10275 1-920): T1 sequence (P10275 1-920 T851A) with A851T
Experimental: as §1

[1] = Circular dichroism spectroscopy and thermal denaturation of H10 peptides; type: physicochemical; details: for melting temperature higher than the WT peptide: 25 µM peptide in 20% TFE-TRIS buffer pH 7.5, at all wave lengths (208, 211, 215, 222 nm); for reduction (vs. WT peptide) of the CD minimum at 208 nm / reduction (vs. WT peptide) of the CD minimum at 222 nm: 50 µM peptide in 20% TFE-TRIS buffer pH 7.5, 4 °C
Experimental: Peptides (AR WT 845–868: Acetyl-[…]-amide) with T850D or with phosphorylated T850 (Genscript, Piscataway, NJ, USA) were compared to WT peptide through their CD spectra. […] The Mean Residue-Molar Ellipticity (MR-ME) was calculated as MR-ME = MRW × θ/(10 × d × c) with MRW (Mean Residue Weight) = peptide weight/(n − 1) and n = […]; with θ as the observed ellipticity in millidegrees; […]. The unfolded fraction (Funfolded) of the peptide was calculated from the Ellipticity data using equation: Funfolded = (θt − θfolded)/(θunfolded − θfolded) with θt as the Ellipticity at each temperature, θfolded as the Elllipticity of the peptide in folded state and θunfolded as the Ellipticity of the peptide in unfolded state. Melting temperature (Tm) of AR 845–868 peptides were calculated through nonlinear regression analysis of the Sigmoidal dose response curves (variable slope) using GraphPad Prism 9, version 9.3.1. The temperature corresponding to an unfolded fraction of 0.5 is the Tm. Mean melting temperatures with 95% CI of 2 independent experiments are given. Helix content was calculated from the molar ellipticity [θ] at 222 nm using the following equation, % helix = 100 ([θ]222/(−39,500(1 − 2.57/n))), where n is the number of total peptide bonds and [θ]222 has been corrected for background.

LBD WT = details: split TEV assay, Hep3B

| Compound | melting temperature higher than the WT peptide [1] | reduction (vs. WT peptide) of the CD minimum at 208 nm [1] [%] | reduction (vs. WT peptide) of the CD minimum at 222 nm [1] [%] | further results |
| --- | --- | --- | --- | --- |
| C[C@@H]1CC2=CC(=O)CC[C@@H]2[C@H]2CC[C@@]3(C)[C@@H](CC[C@]3(C)O)[C@@H]21 [^3H-Mib] | – | – | – | Bmax (AR T850A): 5514 (±561) cpm; increase of maximal binding, AR T850D vs. AR WT (AR T850D): approximately 50%; Bmax (AR T850D; mean ± SE): 7902 (±773) ** cpm; Bmax (AR WT): 5182 (±602) cpm |
| T850D peptide: H10 peptide AR 845–868 (WT: Acetyl-KRKNPTSCSRRFYQLTKLLDSVQP-amide) with T850D (Ac-KRKNPDSCSRRFYQLTKLLDSVQP-NH2) | approximately 13 °C | 30 | 43 | – |
| T850Ph peptide: H10 peptide AR 845–868 (WT: Acetyl-KRKNPTSCSRRFYQLTKLLDSVQP-amide) with phosphorylated T850 (Ac-KRKNP[pT]SCSRRFYQLTKLLDSVQP-NH2; SMILES CC(=O)N[C@@H](CCCCN)C(=O)N[C@@H](CCCNC(=N)N)C(=O)N[C@@H](CCCCN)C(=O)N[C@@H](CC(N)=O)C(=O)N1CCC[C@H]1C(=O)N[C@H](C(=O)N[C@@H](CO)C(=O)N[C@@H](CS)C(=O)N[C@@H](CO)C(=O)N[C@@H](CCCNC(=N)N)C(=O)N[C@@H](CCCNC(=N)N)C(=O)N[C@@H](Cc1ccccc1)C(=O)N[C@@H](Cc1ccc(O)cc1)C(=O)N[C@@H](CCC(N)=O)C(=O)N[C@@H](CC(C)C)C(=O)N[C@H](C(=O)N[C@@H](CCCCN)C(=O)N[C@@H](CC(C)C)C(=O)N[C@@H](CC(C)C)C(=O)N[C@@H](CC(=O)O)C(=O)N[C@@H](CO)C(=O)N[C@H](C(=O)N[C@@H](CCC(N)=O)C(=O)N1CCC[C@H]1C(N)=O)C(C)C)[C@@H](C)O)[C@@H](C)OP(=O)(O)O) | ~27 °C | 38 | 51 | – |
| C[C@]12CCC(=O)C[C@@H]1CC[C@@H]1[C@@H]2CC[C@]2(C)[C@@H](O)CC[C@@H]12 [DHT, dihydrotestosterone] | – | – | – | EC50 of WT LBD compared to EC50 of T850D LBD (LBD WT): 10 fold |
